Measured values as given in patent US20220193196A1, “Methods for Modulating T Cell Activation” (THE WALTER AND ELIZA HALL INSTITUTE OF MEDICAL RESEARCH, priority 2019, published 2022).
Entries after “also recorded” stand apart in the source; their conditions may differ.

How the values were obtained:
[1] = test system: CD8 T cells deficient for TNFR2; test: Co-stimulation of anti-CD3 activated CD8 T cells deficient for TNFR2 (dilution of cell tracking dyes); format: cell-based, mouse; settings: anti-CD3 10 μg/ml, mSTAR 5 ng/ml, 72 hours
Method: Data are representative examples of triplicate cultures.
(§1) All experiments were performed using C57BL/6 mice bred and maintained under specific pathogen-free conditions in the WEHI animal facilities (Parkville, Victoria, Australia) and used between 8-20 weeks of age. All experiments were performed under the approval of the WEHI Animal Ethics Committee. Tnfr1−/− and Tnfr2−/− mice were maintained at the WEHI.
(§2) T cells were isolated from pooled mouse lymph nodes (inguinal, axillary, brachial, superficial cervical and lumbar) and isolated using MACS negative selection kits for CD4+ or CD8+ T cells (Miltenyi Biotec, Auburn, Calif., USA). T cell purity was confirmed by flow cytometry following isolation. For all experiments, T cell purity was between 82.9-98.2%. […]
(§3) The following T cell stimulations were used: TCR was stimulated using 10 μg/ml plate bound anti-CD3 (clone 145-2c11, WEHI antibody facility, Australia) unless a different concentration was specified. […] The TNFR2 agonist mSTAR was prepared according from HEK293 cells were transiently transfected and cells cultured for 5-7 days, supernatants were purified using anti-Flag affinity chromatography, and the concentrations of the recombinant proteins were determined compared to standard proteins.

naïve mouse CD4 T cells = test: Expansion of anti-CD3 activated naïve CD4 T cells (total cell numbers, CTV dilution by flow cytometry); format: cell-based; settings: for CD4 T cell expansion (total live cell number, dilution of cell division dyes): plate bound anti-CD3 10 μg/ml, titrated doses of soluble recombinant TNF, over 4 days
Method: (§4) T cells were isolated from pooled mouse lymph nodes (inguinal, axillary, brachial, superficial cervical and lumbar) and isolated using MACS negative selection kits for CD4+ or CD8+ T cells (Miltenyi Biotec, Auburn, Calif., USA). T cell purity was confirmed by flow cytometry following isolation. For all experiments, T cell purity was between 82.9-98.2%.
(§5) T cells were cultured in RPMI 1640 medium (Invitrogen) supplemented with non-essential amino acids, 1 mM Sodium-pyruvate, 10 mM HEPES, 100 U/ml Penicillin, 100 μg/ml Streptomycin (Invitrogen), 50 μM 2β-mercaptoethanol, 2 mM L-glutamine (Sigma) and 10% FCS (Sigma). Cells were incubated in a humidified environment at 37° C. in 5% CO2. For division tracking experiments, T cells were labelled with Cell Trace Violet (Invitrogen) according to the manufacturer's instructions. T cells were cultured in flat bottom tissue culture plates.
(§6) The following T cell stimulations were used: TCR was stimulated using 10 μg/ml plate bound anti-CD3 (clone 145-2c11, WEHI antibody facility, Australia) unless a different concentration was specified. Recombinant murine TNF was purchased from R&D Systems (Minneapolis, Minn., USA). Recombinant mIL-2 was purchased from Peprotech. Smac-mimetics were purchased from Sellekchem, MA. The TNFR2 agonist mSTAR was prepared according from HEK293 cells were transiently transfected and cells cultured for 5-7 days, supernatants were purified using anti-Flag affinity chromatography, and the concentrations of the recombinant proteins were determined compared to standard proteins.
Triplicate wells were harvested at each time point. To determine absolute cell numbers, the number of live cells per culture was estimated by reference to a known number of Calibrite beads (Becton Dickinson, San Jose, Calif.), added directly to cell culture before collecting. […]
To examine the role of TNFα in T cell co-stimulation, naïve CD4 T cells were isolated from C57Bl/6 mice and stimulated with a range of recombinant mouse TNF concentrations in the presence of T cell receptor (TCR) crosslinking via plate bound anti-CD3 stimulation. CD4 T cells were labelled with the cell division tracking dye cell trace violet (CTV) and the response measured daily over 96 hours by quantifying T cell expansion using flow cytometry.
To determine if the co-stimulation effect of TNF on T cells could be mimicked using an agonist specific for TNFR2, the response of naïve mouse CD4 T cells activated via TCR in the presence of recombinant mouse TNF, or a TNFR2-specific agonist called mSTAR (Rauert et al., 2010; Chopra et al., 2016) was measured. Naïve CD4 T cells were CTV labelled and the response measured by flow cytometry after stimulation with anti-CD3 in the presence of TNF or mSTAR (FIGS. 16 to 19).

naïve mouse CD8 T cells = test: Expansion of anti-CD3 activated naïve CD8 T cells (total cell numbers, CTV dilution by flow cytometry); format: cell-based; settings: for receptor through which TNF co-stimulates CD8 T cells: CD8 T cells from WT, tnfr1−/− or tnfr2−/− mice, anti-CD3, TNF 5 ng/ml, 4 days
Method: as §4, §5, §6
Triplicate wells were harvested at each time point. To determine absolute cell numbers, the number of live cells per culture was estimated by reference to a known number of Calibrite beads (Becton Dickinson, San Jose, Calif.), added directly to cell culture before collecting. Dead cells were identified via uptake of propidium iodide (SigmaAldrich) added to culture before flow cytometry. Flow cytometry was performed on a BD FACS Canto II or Fortessa.
To determine if TNF co-stimulation was restricted to CD4 T cells, or could act on all effector cells from the T cell lineage, co-stimulation of naïve CD8 T cells by TNFα was measured. Naïve CTV labelled CD8 T cells were cultured in the presence of plate bound anti-CD3 with various concentrations of recombinant mouse TNFα and the response measured by flow cytometry.
Naïve CD8 T cells were isolated from WT mice and stimulated with combinations of anti-CD3, TNF and SMAC mimetics. The expansion of CD8 T cells was determined by measuring T cell numbers quantified relative to a known number of quantification beads via flow cytometry.

mouse CD8 T cells = test: Cytokine bead array: IFNγ production by TCR activated CD8 T cells; format: cell-based; settings: anti-CD3 10 μg/ml
Method: Supernatant was removed from T cell cultures at 48 hours and CBAs performed to measure IFNγ production. Data represent mean for duplicate samples. ND=none detected.
as §6
Supernatant from T cell cultures 48 hours after activation as described above were used to measure cytokine production (IL-2, IL-4, IL-6, IFN-γ, TNF, IL-17A and IL-10) using the Th1/Th2/Th17 BD Cytometric Bead Array (CBA) Kit (BD Bioscience). The CBA assay was performed according to manufacturer's instructions.
The effect of TNFR2 co-stimulation with TNF on the differentiation of TCR activated CD8 T cells was determined. […] This effect was synergised by the addition of smac-mimetics or IL-2 (FIG. 23).

tnfr1−/− CD4 T cells = test: Expansion of anti-CD3 activated CD4 T cells deficient for TNFR1; format: cell-based, mouse; settings: anti-CD3 10 μg/ml, TNF 5 ng/ml, compared with WT CD4 T cells
Method: as §1, §2
as §3, with “proteins. […]” for “proteins.”
(§7) To determine the role of TNF receptors 1 (TNFR1) and 2 (TNFR2) as regulators of TNFα driven T cell co-stimulation, the response of T cells deficient for either TNFR1 or TNFR2 was measured. […]

tnfr2−/− CD4 T cells = test: Expansion of anti-CD3 activated CD4 T cells deficient for TNFR2; format: cell-based, mouse; settings: anti-CD3 10 μg/ml, TNF 5 ng/ml
Method: as §1, §2
as §3, with “proteins. […]” for “proteins.”
as §7

[2] = anti-CD3 10 μg/ml, TNF 5 ng/ml or mSTAR 5 ng/ml, 72 hours

B1: mSTAR: TNFR2-specific agonist TNF mutein (Rauert et al., 2010; Chopra et al., 2016), SEQ ID NO:3, produced in HEK293 cells (protein)
chain: ACGCAAAPDIKDLLSRLEELEGLVSSLREQGGGGSLRSSSQNSSDKPVAHVVANHQVEEQLEWLSQRANALLANGMDLKDNQLVVPADGLYLVYSQVLFKGQGCPDYVLLTHTVSRFAISYQEKVNLLSAVKSPCPKDTPEGAELKPWYEPIYLGGVFQLEKGDQLSAEVNLPKYLNFRESGQVYFGVIALGGGGSLRSSSQNSSDKPVAHVVANHQVEEQLEWLSQRANALLANGMDLKDNQLVVPADGLYLVYSQVLFKGQGCPDYVLLTHTVSRFAISYQEKVNLLSAVKSPCPKDTPEGAELKPWYEPIYLGGVFQLEKGDQLSAEVNLPKYLNFRESGQVYFGVIALGGGGSLRSSSQNSSDKPVAHVVANHQVEEQLEWLSQRANALLANGMDLKDNQLVVPADGLYLVYSQVLFKGQGCPDYVLLTHTVSRFAISYQEKVNLLSAVKSPCPKDTPEGAELKPWYEPIYLGGVFQLEKGDQLSAEVNLPKYLNFRESGQVYFGVIAL
Question: What does the source list for B1?
Answer: T cell co-stimulation in CD8 T cells deficient for TNFR2 [1]: did not induce any T cell co-stimulation; also recorded: does not activate CD8 T cells in the absence of TNFR2; CD4 T cell response (dilution of cell tracking dyes, total cell numbers), TNF compared with mSTAR (naïve mouse CD4 T cells; [2]): can mimic TNF mediated CD4 T cell activation; CD8 T cell response (dilution of cell division dyes, total cell numbers), mSTAR compared with TNF (naïve mouse CD8 T cells; [2]): can mimic TNF CD8 T cell activation

B2: TNF: Recombinant murine TNF purchased from R&D Systems; wild type, not TNFR2-specific (protein)
chain: LRSSSQNSSDKPVAHVVANHQVEEQLEWLSQRANALLANGMDLKDNQLVVPADGLYLVYSQVLFKGQGCPDYVLLTHTVSRFAISYQEKVNLLSAVKSPCPKDTPEGAELKPWYEPIYLGGVFQLEKGDQLSAEVNLPKYLDFAESGQVYFGVIAL
Question: For B2, which IFNγ production (mouse CD8 T cells; TNF 5 ng/ml, supernatant at 48 hours) is on record?
Answer: Its IFNγ production is “significantly increased; also recorded: increases IFNγ production”.

Question: What about the “response of tnfr1−/− CD4 T cells to TNF co-stimulation” value (tnfr1−/− CD4 T cells) of the same molecule?
Answer: The value was “indistinguishable from WT CD4 T cells”.

Question: And the “receptor through which TNF co-stimulates CD4 T cells” value (naïve mouse CD4 T cells; CD4 T cells from WT, tnfr1−/− or tnfr2−/− mice, anti-CD3, TNF 5 ng/ml, 4 days)?
Answer: Its value is “act exclusively through TNFR2; also recorded: co-stimulates CD4 T cells through TNFR2”.

Question: And the “CD4 T cell expansion (total live cell number, dilution of cell division dyes)” value (naïve mouse CD4 T cells)?
Answer: Its value is “promotes CD4 T cell division and expansion”.

Question: What about the “CD4 T cell expansion (total live cell number, dilution of cell division dyes)” value (naïve mouse CD4 T cells; listed as TNFα) of the same molecule?
Answer: Its value is “significantly enhanced CD4 T cell expansion in a dose dependent manner”.

Question: What about the “co-stimulation of CD4 T cells in the absence of TNFR2” value (tnfr2−/− CD4 T cells) of the same molecule?
Answer: The value was “no co-stimulation”.

Question: And the “receptor through which TNF co-stimulates CD8 T cells” value (naïve mouse CD8 T cells)?
Answer: Its value is “co-stimulates CD8 T cells through TNFR2”.

Question: And the “receptor through which TNF co-stimulates CD8 T cells” value (naïve mouse CD8 T cells; listed as TNFα)?
Answer: The value was “mediated exclusively by TNFR2”.

Question: And the “CD8 T cell expansion (total CD8 T cell numbers, dilution of division tracking dyes)” value (naïve mouse CD8 T cells; plate bound anti-CD3 10 μg/ml, titrated doses of soluble recombinant TNF, over 4 days)?
Answer: Its value is “potent co-stimulator of CD8 T cells; also recorded: potent co-stimulation factor to promote CD8 T cell division and expansion”.

B3: IL-2: Recombinant mIL-2 purchased from Peprotech (protein, UniProt P04351 21-169, looked up)
Interleukin-2: APTSSSTSSSTAEAQQQQQQQQQQQQHLEQLLMDLQELLSRMENYRNLKLPRMLTFKFYLPKQATELKDLQCLEDELGPLRHVLDLTQSKSFQLEDAENFISNIRVTVVKLKGSDNTFECQFDDESATVVDFLRRWIAFCQSIISTSPQ
Question: B3 was tested. Which “IFNγ production, effect of addition to TNF co-stimulation” value (mouse CD8 T cells; TNF 5 ng/ml with Smac-mimetic or IL-2, supernatant at 48 hours) did it give?
Answer: The value was “synergised”.
